Measurements taken from patent US20250236644A1 (University of Washington, published 2025).

Tests used:
effector protein 3hb04 = target: T1, effector protein 3hb04; assay: FRET titration; 2 nM labeled hinge, effector varied
T1 construct: Three-helix bundle built around peptide cs074B
T1 chain: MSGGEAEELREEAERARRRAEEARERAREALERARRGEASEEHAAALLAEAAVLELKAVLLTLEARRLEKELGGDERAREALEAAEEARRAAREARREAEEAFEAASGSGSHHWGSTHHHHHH
Protocol: (§1) Dotted lines in spectra indicate acceptor and donor emission peaks. B) Kinetic model describing the coupling of the conformational equilibrium to the binding equilibrium. X and Y: hinge in state X and Y, respectively; P: peptide; YP: peptide bound to hinge in state Y. k₁, k₋₁, k₋₂, and […] the microscopic rate constants. C) FP characterization of unlabeled extended hinge cs074F. From left to right: binding titration at 0.1 nM TAMRA-labeled peptide and varying hinge concentrations; time course after mixing 2 nM TAMRA-labeled peptide and 100 nM hinge fitted with a single-exponential equation (black line); apparent rate constants obtained from single-exponential kinetic fits plotted against absolute hinge concentrations (circles) and fitted with a linear equation (black line). D) FRET-based reversibility experiment using the labeled extended hinge […] introduced in C). Hinge concentration is 30 nM for all traces; 1 μM peptide is added at t=0, 3 μM unlabeled competitor hinge is added after 1 h. E) Top from left to right: schematic representation of the inpainting procedure that adds two helices to the peptide cs074B yielding a three-helix bundle (3hb); cylindrical representation of 3hb_05 bound to hinge cs074; overlay of design model and crystal structure of 3hb_05. Bottom from left to right: SEC traces for hinge cs074, 3hb_05, and a mixture of both; FRET-based titration of 2 nM extended labeled hinge cs074F and varying concentrations of 3hb_05 fitted with a standard binding isotherm (back line); Distance distributions obtained from DEER experiments as described in FIG. 2 (cs074, cs074+peptide cs074B, cs074+3hb_05).
(§2) Titrations were carried out in 96-well format, with 4 replicates per plate and 24 data points per titration (23 steps of two-fold serial dilution of effector (peptide or 3hb) in the presence of double-labeled hinge at a constant concentration of 2 nM) with a final sample volume of 80 μl per well. Titration plates were incubated overnight at room temperature before measuring to ensure complete equilibration. The raw fluorescence signal (donor emission upon acceptor excitation) was fitted to the equation

effector protein 3hb11 = target: T2, effector protein 3hb11; assay: as above
T2 construct: Three-helix bundle built around peptide cs074B
T2 chain: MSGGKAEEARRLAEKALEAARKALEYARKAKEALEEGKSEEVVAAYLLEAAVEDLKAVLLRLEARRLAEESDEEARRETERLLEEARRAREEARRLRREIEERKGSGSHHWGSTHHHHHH
Protocol: as §1, §2

effector peptide cs074B [1] = target: T3, effector peptide cs074B; assay: as above
T3 construct: Chemically synthesized, unlabeled
T3 peptide: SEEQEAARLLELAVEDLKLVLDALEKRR
Protocol: as §1, §2

effector protein 3hb05 = target: T4, effector protein 3hb05; assay: as above
T4 construct: Three-helix bundle built around peptide cs074B
T4 chain: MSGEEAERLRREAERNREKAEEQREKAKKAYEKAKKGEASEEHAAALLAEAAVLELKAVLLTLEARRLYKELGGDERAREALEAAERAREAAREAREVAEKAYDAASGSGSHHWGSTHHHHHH
Protocol: as §1, §2

effector protein 3hb08 = target: T5, effector protein 3hb08; assay: as above
T5 construct: Three-helix bundle built around peptide cs074B
T5 chain: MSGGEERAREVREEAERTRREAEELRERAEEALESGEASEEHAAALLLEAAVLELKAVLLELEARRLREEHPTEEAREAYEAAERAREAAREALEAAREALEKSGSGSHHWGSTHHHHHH
Protocol: as §1, §2

effector protein 3hb12 = target: T6, effector protein 3hb12; assay: as above
T6 construct: Three-helix bundle built around peptide cs074B
T6 chain: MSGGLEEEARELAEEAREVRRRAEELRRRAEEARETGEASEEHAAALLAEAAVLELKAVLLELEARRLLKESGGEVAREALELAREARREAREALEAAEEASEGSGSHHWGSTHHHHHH
Protocol: as §1, §2

effector protein 3hb03 = target: T7, effector protein 3hb03; assay: as above
T7 construct: Three-helix bundle built around peptide cs074B
T7 chain: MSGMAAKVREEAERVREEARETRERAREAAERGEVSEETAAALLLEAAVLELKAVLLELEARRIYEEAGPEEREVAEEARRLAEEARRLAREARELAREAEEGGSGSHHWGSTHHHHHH
Protocol: as §1, §2

effector peptide cs201B [2] = target: T8, effector peptide cs201B; assay: FRET titration; 2 nM labeled hinge, off-target peptide varied
T8 construct: Unlabeled
T8 peptide: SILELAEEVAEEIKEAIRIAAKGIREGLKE
Protocol: (§3) The buffer for all FRET measurements was 20 mM Tris-HCl, 100 mM NaCl, 0.05% v/v TWEEN®20 at pH 8. Fluorescence spectra were recorded at room temperature using a FluoroMax™ spectrometer in a 1 cm×1 cm cuvette at a sample volume of 3 ml. FRET titrations and kinetics measurements were performed at 25° C. in 96-well plates (Corning 3686) using a Synergy Neo2™ plate reader. Excitation wavelength was 520 nm and emission wavelength was 665 nm (except for donor-donor controls for which emission wavelength was 555 nm, see FIG. 13B right column).
as §2

effector peptide cs221B [3] = target: T9, effector peptide cs221B; assay: as above
T9 construct: Unlabeled
T9 peptide: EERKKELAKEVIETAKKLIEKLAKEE
Protocol: as §3, §2

effector peptide cs074B [4] = target: T3, effector peptide cs074B; assay: FRET kinetics; slope of kapp against peptide concentration
Protocol: (§4) FIG. 14. Columns 1-3: FRET kinetics using extended hinges labeled with AlexaFluor™ 555 and AlexaFluor™ 647 at a constant concentration (2 nM for cs201F and cs074F, 5 nM for cs221F) and corresponding peptides at varying concentrations. Column 4: FP kinetics using TAMRA-labeled peptide cs074B at 2 nM and extended hinge cs074F at varying concentrations. All kinetic traces (rows 1-8) were fitted using a single-exponential equation (black lines). […] The slope of the linear fit gives the observed on rate kₒₙ.
(§5) For FRET kinetics experiments a 2× hinge solution and 8 different 2× effector solutions at different concentrations were prepared separately. 40 μl of each effector solution were mixed with 40 μl hinge solution using a multichannel pipet and the measurement was started immediately after mixing. Fluorescence signals S at each concentration were fitted individually to the equation

effector peptide cs201B [5] = target: T8, effector peptide cs201B; assay: FRET titration; 2 nM labeled hinge, effector varied
Protocol: as §1, §2

effector peptide cs074B [6] = target: T3, effector peptide cs074B; assay: FRET titration, 2 nM labeled hinge
Protocol: as §1, §2

effector peptide cs221B [7] = target: T9, effector peptide cs221B; assay: FRET titration, 2 nM labeled hinge
Protocol: as §1, §2

effector peptide cs201B [8] = target: T8, effector peptide cs201B; assay: FRET kinetics; slope of kapp against peptide concentration
Protocol: as §4, §5

effector protein 3hb21 [9] = target: T10, effector protein 3hb21; assay: FRET kinetics; 5 nM labeled hinge, slope of kapp against 3hb concentration
T10 construct: Three-helix bundle built around peptide cs221B
T10 chain: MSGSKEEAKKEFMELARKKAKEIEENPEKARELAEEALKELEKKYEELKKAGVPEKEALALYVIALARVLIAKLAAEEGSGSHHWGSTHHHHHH

effector protein 3hb21 [10] = target: T10, effector protein 3hb21; assay: FRET titration; 2 nM labeled hinge, effector varied
Protocol: as §1, §2

effector peptide cs221B [11] = target: T9, effector peptide cs221B; assay: as above
Protocol: as §1, §2

effector protein 3hb21 [12] = target: T10, effector protein 3hb21; assay: FRET titration; 2 nM hinge cs221F, 3hb varied
Protocol: (§6) FIG. 18. FRET-based quantitative analysis of the interaction between cs221F and 3hb21. Individual kinetic traces were obtained using a constant hinge concentration of 5 nM and varying 3hb concentrations as indicated by plot labels. Single exponential fits give apparent rate constants that increase linearly with the total 3hb concentration (points in pseudo-first order plot). The linear fit of kₐₚₚ against 3hb concentration gives an observed on rate that is 5 times faster than the observed on rate of the original peptide.
as §2

effector peptide cs201B [13] = target: T8, effector peptide cs201B; assay: FRET titration, 2 nM labeled hinge
Protocol: as §1, §2

effector peptide cs221B [14] = target: T9, effector peptide cs221B; assay: FRET kinetics; slope of kapp against peptide concentration
Protocol: as §4, §5

effector protein 3hb21 [15] = target: T10, effector protein 3hb21; assay: FRET kinetics; 5 nM hinge, 3hb varied
Protocol: as §6, §5

B1: FRET(extension) cs074F, labeled with AlexaFluor 555 and AlexaFluor 647 (designed binder)
chain: DEEVQEAVERAEELREEAEELIKKARKTGDPELLRKALEALECAVRAVEEAIKRNPDNDEAVETAVRLARELKKVAEELQERAKKTGDPELLKLALRALKVAVRAVKLAIKSNPDNEEAVKTAVRLARELLKVAEELKERAEKTGDPRLLLLAAEAIAWAIEAVFLAAKASENTEGALEAARAAVKLAEVAKRIAKLLQRDAKKEGDPELLKLALRALELAVRAVELAIKENPDNDEAVETAVRLARELKKVAEELQERAKKTGDPELLKLALRALEVAVRAVELAIKSNPDNEEAVETAKRLAEELRKVAELLEERACETGDPELQELAKRAKEVADRARELAKKSNPNNGSHHHHHH
modifications: the two introduced cysteines stochastically labeled with an equal mixture of AlexaFluor 555 C2 maleimide (donor) and AlexaFluor 647 C2 maleimide (acceptor)
notes: Extended hinge cs074 used in the FRET assays; also called extended labeled hinge cs074F
B1 was tested, and the Kd (effector protein 3hb04) was less than 2 nM, the Kd (effector protein 3hb11) was less than 2 nM and the Kd (effector peptide cs074B [1]) was less than 2 nM. It also gave a Kd (effector protein 3hb05) of less than 2 nM, a Kd (effector protein 3hb08) of less than 2 nM and a Kd (effector protein 3hb12) of less than 2 nM. The Kd (effector protein 3hb03) was less than 2 nM, the Kd (effector peptide cs201B [2]) was 2500 nM and the Kd (effector peptide cs221B [3]) was 130 nM. It also gave a kon (effector peptide cs074B [4]) of 170000 M⁻¹ s⁻¹.

B2: FRET(extension) cs201F, labeled with AlexaFluor 555 and AlexaFluor 647 (designed binder)
chain: MSGDEEVQEAVERAEELREEAEELIKKARKTGDPELLRKALEALEEAVRAVEEAICRNPDNDEAVETAVRLARELKKVAEELQERAKKTGDPELLKLALRALEVAVRAVELAIKSNPDNDEAVETAVRLARELKKVAEELQERAKKTGDPELLKLALRALEVAVRAVELAIKRNPDNEEAIKTALRLARELRKVAKELIERARKTGDAELLKKALEAARVAVEAVRLAAEYNKENAEKMAELLVELAELAREVADVLIELAEKTGDPELLKKALEVLEEAVEAVRLAIEYDPDHDEAVETAVRLARELKKVAEELQERAKKTGDPELLKLALRALEVAVRAVELAIKSNPDNEEAVETAKRLAEELRKVAELLEERAKETGDPCLQELAKRAKEVADRARELAKKSNPNNGSGSHHWGSTHHHHHH
modifications: the two introduced cysteines stochastically labeled with an equal mixture of AlexaFluor 555 C2 maleimide (donor) and AlexaFluor 647 C2 maleimide (acceptor)
notes: also called FRET-labeled hinge cs201F
With B2 the Kd (effector peptide cs201B [5]) was 20 nM, the binding result (effector peptide cs074B [6]) was “no binding (tested: µM concentrations)” and the binding result (effector peptide cs221B [7]) was “no binding (tested: µM concentrations)”. It also gave a kon (effector peptide cs201B [8]) of 4500 M⁻¹ s⁻¹.

B3: FRET(extension) cs221F, labeled with AlexaFluor 555 and AlexaFluor 647 (designed binder)
chain: MSGEMVEEIEKLAEELAKKTKDCEVKKLAKKAAELAKKSTDEMKKEIVKDALELALRTKDEEVIRLALKAAVLAAESDDEEVKEVVKKALEAALKSKDEEVIRLLLLAAVLAAAAARSGSPEEKLEIAKKALELAMKSKDEEVIRLALLAAVLAARSDDEEVLKIVKKALELAMESKDVEVIRLALEAAVLAARSTDPEKKKCVYEALEKAMESKDEEEIKKELKAAVEKARSTEGSGSHHWGSTHHHHHH
modifications: the two introduced cysteines stochastically labeled with an equal mixture of AlexaFluor 555 C2 maleimide (donor) and AlexaFluor 647 C2 maleimide (acceptor)
B3 was tested, and the kon (effector protein 3hb21 [9]) was 13000 M⁻¹ s⁻¹, the Kd (effector protein 3hb21 [10]) was 2.2 nM and the Kd (effector peptide cs221B [11]) was 21 nM. For the same binder, the Kd (effector protein 3hb21 [12]) was less than 2 nM, the “fold stronger KD than the original peptide cs221B” value (effector protein 3hb21 [12]) was 20 fold and the binding result (effector peptide cs201B [13]) was “no binding (tested: µM concentrations)”. For the same binder, the binding result (effector peptide cs074B [6]) was “no binding (tested: µM concentrations)”, the kon (effector peptide cs221B [14]) was 2600 M⁻¹ s⁻¹ and the “fold faster observed on rate than the original peptide cs221B” value (effector protein 3hb21 [15]) was 5 fold.
